Data from patent US20030124114A1.

Biological target: hepatitis A virus (HAV) particles (hepatitis A virus)
Assay: cell-based or functional assay

D1muc-Fc fusion protein (IgVmuc-hIg)
HAV infectivity (neutralization): 2 logs
